Data as given in US20120148575A1 (published 2012).

Target: Control
Test: SPR

B1: muFcgRIV (receptor)
chain: GLQKAVVNLDPKWVRVLEEDSVTLRCQGTFSPEDNSIKWFHNESLIPHQDANYVIQSARVKDSGMYRCQTALSTISDPVQLEVHMGWLLLQTTKWLFQEGDPIHLRCHSWQNRPVRKVTYLQNGKGKKYFHENSELLIPKATHNDSGSYFCRGLIGHNNKSSASFRISLGDPGSPSMFPPWHQ
- Kd: 329 nM
